Measured values as given in publication PMC6918676.

Molecular target: full length Trk-A with a C-terminal (GGS)5 linker and eYFP or mTurquoise (human) (UniProt P04629)
Test: FRET or BRET

Chain of full length Trk-A with a C-terminal (GGS)5 linker and eYFP or mTurquoise (P04629 33-796): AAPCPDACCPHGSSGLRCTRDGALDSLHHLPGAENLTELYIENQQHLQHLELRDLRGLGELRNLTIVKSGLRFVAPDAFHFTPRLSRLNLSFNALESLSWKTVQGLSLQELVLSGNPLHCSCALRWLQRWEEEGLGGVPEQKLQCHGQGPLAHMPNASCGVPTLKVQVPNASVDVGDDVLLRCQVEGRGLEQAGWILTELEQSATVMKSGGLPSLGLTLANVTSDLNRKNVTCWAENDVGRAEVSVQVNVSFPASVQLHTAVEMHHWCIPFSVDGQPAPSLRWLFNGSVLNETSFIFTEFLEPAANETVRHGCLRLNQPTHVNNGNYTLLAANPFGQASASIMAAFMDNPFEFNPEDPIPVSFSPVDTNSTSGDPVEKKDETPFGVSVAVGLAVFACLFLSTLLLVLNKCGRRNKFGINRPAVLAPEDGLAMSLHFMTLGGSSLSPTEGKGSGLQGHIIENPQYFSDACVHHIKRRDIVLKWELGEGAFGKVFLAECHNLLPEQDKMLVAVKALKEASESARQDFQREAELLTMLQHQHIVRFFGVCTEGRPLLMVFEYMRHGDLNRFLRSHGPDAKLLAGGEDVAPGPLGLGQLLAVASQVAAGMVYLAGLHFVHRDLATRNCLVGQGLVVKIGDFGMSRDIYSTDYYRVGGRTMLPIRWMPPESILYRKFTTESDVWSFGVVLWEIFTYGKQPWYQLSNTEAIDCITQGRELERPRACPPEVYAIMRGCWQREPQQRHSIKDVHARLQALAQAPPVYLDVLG

Work on “full length Trk-A with a C-terminal (GGS)5 linker and eYFP or mTurquoise (from UniProt P04629 33-796) (receptor)” yielded a stoichiometry N of 2.
